Laboratory results taken from patent US20210054355A1 (NEW YORK UNIVERSITY, published 2021).
Numbering of substitutions follows the chain as printed. In names and notes the source's numbering stands.

Tests used:
[1] = target: T1, Soluble human α-Klotho ectodomain (αKlotho^ecto) (human, UniProt Q9UEF7 34-981); experiment: size-exclusion chromatography of the mixture, with Coomassie-stained SDS-PAGE of the eluted peak fractions [left]
T1 construct: also called wild-type αKlotho^ecto; soluble αKlotho
T1 sequence: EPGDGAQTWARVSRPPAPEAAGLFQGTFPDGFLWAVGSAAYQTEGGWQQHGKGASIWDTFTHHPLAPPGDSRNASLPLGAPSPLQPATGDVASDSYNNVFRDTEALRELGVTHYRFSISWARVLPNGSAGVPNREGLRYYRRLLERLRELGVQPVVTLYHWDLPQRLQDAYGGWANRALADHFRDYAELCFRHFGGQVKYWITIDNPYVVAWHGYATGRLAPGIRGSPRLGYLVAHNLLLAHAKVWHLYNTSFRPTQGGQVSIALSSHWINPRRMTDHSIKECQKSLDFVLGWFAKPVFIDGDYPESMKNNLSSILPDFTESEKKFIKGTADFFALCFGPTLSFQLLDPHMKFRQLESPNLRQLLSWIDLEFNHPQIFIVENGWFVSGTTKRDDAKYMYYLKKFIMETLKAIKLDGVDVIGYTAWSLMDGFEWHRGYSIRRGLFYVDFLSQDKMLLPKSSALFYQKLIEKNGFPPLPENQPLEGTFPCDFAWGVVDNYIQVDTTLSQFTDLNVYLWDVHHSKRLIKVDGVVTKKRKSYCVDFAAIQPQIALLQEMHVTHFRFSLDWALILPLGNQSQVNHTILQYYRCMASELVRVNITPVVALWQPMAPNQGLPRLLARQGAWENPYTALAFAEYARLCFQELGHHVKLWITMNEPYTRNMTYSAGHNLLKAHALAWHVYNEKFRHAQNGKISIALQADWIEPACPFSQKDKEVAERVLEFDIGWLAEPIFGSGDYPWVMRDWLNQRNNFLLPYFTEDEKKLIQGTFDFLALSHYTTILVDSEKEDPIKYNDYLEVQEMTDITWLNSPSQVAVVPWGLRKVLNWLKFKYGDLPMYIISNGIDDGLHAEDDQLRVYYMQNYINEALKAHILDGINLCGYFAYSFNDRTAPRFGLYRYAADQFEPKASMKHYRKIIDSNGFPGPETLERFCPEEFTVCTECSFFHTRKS

[2] = target: T2, FGFR1c^ecto/ΔSLBS (FGFR1c^ecto carrying I203E) (human, UniProt P11362 142-365); experiment: SEC-MALS, 1:1:1 ternary complex with FGF23 and αKlotho^ecto
T2 construct: also called FGFR1c^ΔSLBS
T2 sequence: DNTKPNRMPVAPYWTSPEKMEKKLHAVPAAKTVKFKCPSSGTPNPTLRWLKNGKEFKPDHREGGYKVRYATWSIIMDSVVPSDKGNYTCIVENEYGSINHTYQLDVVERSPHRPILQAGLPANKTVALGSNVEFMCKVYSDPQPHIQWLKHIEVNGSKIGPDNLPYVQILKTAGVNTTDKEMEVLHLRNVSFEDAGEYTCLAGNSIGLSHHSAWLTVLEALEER
Procedure: (§1) A Superdex 200 10/300 GL column (GE Healthcare, USA) was placed in-line between the HPLC pump (Waters 1525) and the HPLC UV (Waters 2998 Photodiode Array), laser light scattering, and refractive index detectors. Light scattering and refractive index detectors were calibrated following the manufacturer's guidelines. The refractive index increment (dn/dc) in which n is the refractive index and c is the concentration of the mixture of DDM and CHS in 20 mM Tris-HCl pH 8.0 buffer containing 300 mM NaCl, was determined offline using an Optilab T-rEX refractive index detector. Monomeric bovine serum albumin (#23210, Thermo Scientific, USA) was used as part of routine data quality control.
(§2) 60 ml or more of 25 mM HEPES pH 7.5 buffer containing 150 mM NaCl were passed through the system at a flow rate of 0.5 mL/min to equilibrate the Superdex 200 10/300 GL column and establish stable baselines for light scattering and refractive index detectors. Purified αKlotho^ecto, FGER1c^ecto (wild type or mutant), and FGF23 (wild type or mutant) proteins were mixed at a molar ratio of 1:1:1 and concentrated to 12.5 μM. 50 μl of protein samples with a molar equivalent of a heparin hexasaccharide (#H006, Iduron, Manchester, U.K.) were injected onto the gel filtration column, and the column eluent was continuously monitored for 280 nm absorbance, laser light scattering, and refractive index. In a separate set of experiments, 50 μl of 1:1:1 FGF23-FGFR1c^ecto-αKlotho^ecto ternary complex at 12.5 μM concentration was mixed with heparin hexasaccharide at molar ratios of 1:0.25, 1:0.5, 1:1, or 1:2, and the mixtures were injected onto the gel filtration column. 50 μl of ternary complex without added heparin hexasaccharide were run as a control. In yet another set of experiments, αKlotho^ecto (wild type or mutant) and FGER1c^ecto were mixed at a molar ratio of 1:1, and 50 μl of concentrated protein mixtures were injected onto the gel filtration column. 50 μl of concentrated αKlotho^ecto (wild type or mutant) alone were run as a control in these experiments. […]

[3] = target: T3, FGFR1c^ecto/ΔRRBS (FGFR1c^ecto carrying A171D) (human, UniProt P11362 142-365); experiment: as above
T3 construct: also called FGFR1^ΔRRBS
T3 sequence: T2 sequence with A30D, E62I
Procedure: as §1, §2

[4] = target: T4, FGFR1c^ecto/ΔSLBS′ (FGFR1c^ecto carrying V221D) (human, UniProt P11362 142-365); experiment: as above
T4 construct: also called FGFR1c^ΔSLBS′
T4 sequence: T2 sequence with E62I, V80D
Procedure: as §1, §2

Measured: binding result

B1: FGF23^WT (human FGF23 Y25 to S205 with R176Q/R179Q, protease-resistant minimal protein) (ligand)
chain: YPNASPLLGSSWGGLIHLYTATARNSYHLQIHKNGHVDGAPHQTIYSALMIRSEDAGFVVITGVMSRRYLCMDFRGNIFGSHYFDPENCRFQHQTLENGYDVYHSPQYHFLVSLGRAKRAFLPGMNPPPYSQFLSRRNEIPLIHFNTPIPRQHTQSAEDDSERDPLNVLKPRARMTPAPAS
notes: also called wild-type FGF23; minimal FGF23
binds: all assays above
